The numbers were not newly measured in PMC3734285, “Expression and Function of the Lipocalin-2 (24p3/NGAL) Receptor in Rodent and Human Intestinal Epithelia” (PLoS ONE, 2013), which cites them from elsewhere.

The subject of this data set is megalin.

B1: hNGAL: Human lipocalin-2/Neutrophil Gelatinase-Associated Lipocalin, high-affinity ligand of hNGAL-R, from Enzo Life Sciences (protein)
chain: QDSTSDLIPAPPLSKVPLQQNFQDNQFQGKWYVVGLAGNAILREDKDPQKMYATIYELKEDKSYNVTSVLFRKKKCDYWIRTFVPGCQPGEFTLGNIKSYPGLTSYLVRVVSTNYNQHAMVFFKKVSQNREYFKITLYGRTKELTSELKENFIRFSKSLGLPENHIVFPVPIDQCIDG
Take B1: the “fold lower affinity of megalin to hNGAL (versus hNGAL-R)” value is given as around 1000 fold.
